Results on one substance are retold here after patent publication US20170112904A1.

Holding throughout (assay): cell-based or functional assay
In assay [1] the target is recombinant human glucagon receptor (human) (UniProt P47871).
For assay [2], the target named is T1, human glucose-dependent insulinotropic polypeptide receptor (human) (UniProt P48546).
T1 sequence (looked up): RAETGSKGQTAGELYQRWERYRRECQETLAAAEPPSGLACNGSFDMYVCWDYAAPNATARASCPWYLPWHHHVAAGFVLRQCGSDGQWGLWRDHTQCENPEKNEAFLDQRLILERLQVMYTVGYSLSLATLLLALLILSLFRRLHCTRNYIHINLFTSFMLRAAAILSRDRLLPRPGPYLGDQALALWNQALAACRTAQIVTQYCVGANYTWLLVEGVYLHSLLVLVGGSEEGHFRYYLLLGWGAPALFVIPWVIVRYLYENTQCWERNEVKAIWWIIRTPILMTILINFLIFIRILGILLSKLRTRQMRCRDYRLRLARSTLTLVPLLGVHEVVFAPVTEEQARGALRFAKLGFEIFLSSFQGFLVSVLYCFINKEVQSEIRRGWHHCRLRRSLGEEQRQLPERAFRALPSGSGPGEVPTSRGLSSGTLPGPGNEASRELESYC

Assay [3] concerns the target human Glucagon-Like Peptide-1 receptor (human) (UniProt P43220).

Chain of recombinant human glucagon receptor (human) (P47871 26-477): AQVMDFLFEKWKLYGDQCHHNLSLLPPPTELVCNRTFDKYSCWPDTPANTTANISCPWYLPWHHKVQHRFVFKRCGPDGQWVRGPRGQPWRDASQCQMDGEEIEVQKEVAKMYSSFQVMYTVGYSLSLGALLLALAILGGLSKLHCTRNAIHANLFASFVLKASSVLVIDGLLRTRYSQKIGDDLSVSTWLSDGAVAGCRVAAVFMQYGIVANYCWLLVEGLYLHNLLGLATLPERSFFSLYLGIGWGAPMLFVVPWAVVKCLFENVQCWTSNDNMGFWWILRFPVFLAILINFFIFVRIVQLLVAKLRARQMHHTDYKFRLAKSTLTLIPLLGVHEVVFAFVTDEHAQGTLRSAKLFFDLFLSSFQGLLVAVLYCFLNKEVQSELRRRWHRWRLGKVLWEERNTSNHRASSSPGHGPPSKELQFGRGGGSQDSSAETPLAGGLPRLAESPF
Chain of dulaglutide (Fc fusion) (chain): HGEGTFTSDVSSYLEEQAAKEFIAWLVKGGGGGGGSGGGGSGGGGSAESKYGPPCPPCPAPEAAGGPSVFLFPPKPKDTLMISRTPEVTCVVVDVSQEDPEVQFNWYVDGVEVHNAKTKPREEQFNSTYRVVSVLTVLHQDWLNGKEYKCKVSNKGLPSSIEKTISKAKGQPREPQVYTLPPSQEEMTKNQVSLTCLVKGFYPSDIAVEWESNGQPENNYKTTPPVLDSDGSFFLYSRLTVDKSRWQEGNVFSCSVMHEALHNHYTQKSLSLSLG
Chain of human Glucagon-Like Peptide-1 receptor (human) (P43220 24-463): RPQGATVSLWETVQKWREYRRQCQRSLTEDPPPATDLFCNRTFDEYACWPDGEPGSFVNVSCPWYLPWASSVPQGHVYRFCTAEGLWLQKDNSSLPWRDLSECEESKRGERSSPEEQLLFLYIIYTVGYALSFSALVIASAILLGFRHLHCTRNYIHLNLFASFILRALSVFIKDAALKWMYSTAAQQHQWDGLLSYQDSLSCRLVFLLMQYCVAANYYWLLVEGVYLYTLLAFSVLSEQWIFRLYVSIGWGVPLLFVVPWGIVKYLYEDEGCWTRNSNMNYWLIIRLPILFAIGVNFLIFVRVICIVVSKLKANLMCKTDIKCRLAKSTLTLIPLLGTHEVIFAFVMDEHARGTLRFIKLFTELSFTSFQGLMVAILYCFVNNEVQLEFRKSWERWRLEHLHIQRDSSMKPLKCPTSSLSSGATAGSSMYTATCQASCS

On to dulaglutide (Fc fusion), for which, in assay [1], the EC50, Gcg Receptor Assay; sample C6.5-4 C.-4 wk was determined as 51.9 nM; the EC50, Gcg Receptor Assay; sample C6.5-40 C.-4 wk is > 100 nM; the EC50, Gcg Receptor Assay; sample C6.5MT-4 C.-4 wk stood at 54 nM; the EC50, Gcg Receptor Assay; sample C6.5MT-40 C.-4 wk is > 100 nM. In assay [2], the EC50, GIP Receptor Assay; sample C6.5-4 C.-4 wk was > 100 nM; the EC50, GIP Receptor Assay; sample C6.5-40 C.-4 wk was > 100 nM; the EC50, GIP Receptor Assay; sample C6.5MT-4 C.-4 wk is > 100 nM; the EC50, GIP Receptor Assay; sample C6.5MT-40 C.-4 wk is > 100 nM. In assay [3], this substance yielded an EC50, GLP-1 Receptor Assay; sample C6.5-4 C.-4 wk of 0.37 nM; an EC50, GLP-1 Receptor Assay; sample C6.5-40 C.-4 wk of 0.31 nM; an EC50, GLP-1 Receptor Assay; sample C6.5MT-4 C.-4 wk of 0.4 nM; an EC50, GLP-1 Receptor Assay; sample C6.5MT-40 C.-4 wk of 0.29 nM.
